This note sets out measurements from paper PMC2912431.

Assay [1] addresses C28A UreGStr (Klebsiella aerogenes) (UniProt P18319). Kind of assay: SEC. (SEC sorts molecules by how far they enter the pores of the column.)
Assay [2] addresses Klebsiella aerogenes UreE (Klebsiella aerogenes). Kind of assay: SEC.

What is called stoichiometry N is the number of molecules, sites or subunits per partner or assembly.

For the substance “C28A UreGStr (from UniProt P18319 1-205) (natural protein)”, the stoichiometry N in assay [1] is 2.

“Klebsiella aerogenes UreE (natural protein)” gave a stoichiometry N in assay [2] of 2.
